The target in test [1] is T1, amphyphisin SH3 (AMPH_HUMAN), P49418.
T1 chain: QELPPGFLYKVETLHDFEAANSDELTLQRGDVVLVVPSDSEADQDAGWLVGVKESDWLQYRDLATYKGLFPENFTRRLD
The experiment in a line: SPOT array.

The target of test [2] is endophilin SH3 (SH3G2_HUMAN), Q99962. The experiment in a line: SPOT array.

B1: Q9GZT8 65-78 (peptide)
chain: YHPPIFRPMKRITW
B1: the normalised SPOT signal, Boehringer light units (BLU); mean over the file's lines of this peptide in test [1] worked out at 145; in test [2] it was 293.

B2: Q8WXI7 2968-2981 (peptide)
chain: YHPNPKRPGLDREQ
Turning to B2, the results for the normalised SPOT signal, Boehringer light units (BLU); mean over the file's lines of this peptide in test [1] and in test [2] were 43.3 and 34.1, respectively.

B3: Q9UL63 619-632 (peptide)
chain: WSLKLSRPSKDYLL
In the case of B3, the figures for the normalised SPOT signal, Boehringer light units (BLU); mean over the file's lines of this peptide in test [1] and in test [2] were 1110 and 2270, respectively.

B4: Q92625 879-893 (peptide)
chain: YEEPPQKPPRFSQL
On to B4, for which the normalised SPOT signal, Boehringer light units (BLU); mean over the file's lines of this peptide in test [1] is 3280; in test [2], 131.

B5: Q9HBU2 317-330 (peptide)
chain: SPPIPRRPAEPPWP
Take B5: the normalised SPOT signal, Boehringer light units (BLU); mean over the file's lines of this peptide in test [1] came to 33; in test [2], 1380.

B6: Q9NP08 303-316 (peptide)
chain: WPAGPRRPHRSSAS
With B6, the normalised SPOT signal, Boehringer light units (BLU); mean over the file's lines of this peptide in test [1] was determined as 7190; in test [2], 4250.

B7: O94824 705-718 (peptide)
chain: YERTLRRPVPLPHS
Turning to B7, the normalised SPOT signal, Boehringer light units (BLU); mean over the file's lines of this peptide in test [1] amounted to 37; in test [2], 297.

B8: O94856 414-427 (peptide)
chain: YLTVLGRPDRPRDL
Regarding B8, the normalised SPOT signal, Boehringer light units (BLU); mean over the file's lines of this peptide in test [1] worked out at 386; in test [2], 127.

B9: Q12770 808-821 (peptide)
chain: SLTRIPRPGRQRRD
With B9, the normalised SPOT signal, Boehringer light units (BLU); mean over the file's lines of this peptide in test [1] came to 817; in test [2], 294.

B10: P23368 123-136 (peptide)
chain: YGHIFRRPKGLFIS
On to B10, for which the normalised SPOT signal, Boehringer light units (BLU); mean over the file's lines of this peptide is 35.9 in test [1] and 110 in test [2].

B11: Q9NR62 73-86 (peptide)
chain: YKVNLKRPSPFWAE
B11: the normalised SPOT signal, Boehringer light units (BLU); mean over the file's lines of this peptide amounted to 30.9 in test [1] and 42.2 in test [2].

B12: Q96QG0 338-351 (peptide)
chain: SPSAPRRPRRPRRP
In the case of B12, the normalised SPOT signal, Boehringer light units (BLU); mean over the file's lines of this peptide came to 4890 in test [1] and 1730 in test [2].

B13: Q9H4M7 331-345 (peptide)
chain: YLQLPPRPPGTRAS
As for B13, the normalised SPOT signal, Boehringer light units (BLU); mean over the file's lines of this peptide in test [1] was 235; in test [2], 1230.

B14: Q16798 148-161 (peptide)
chain: YGLTFRRPRGLFIT
B14: the normalised SPOT signal, Boehringer light units (BLU); mean over the file's lines of this peptide in test [1] amounted to 23.2; in test [2], 347.

B15: Q96G29 26-39 (peptide)
chain: WLGSLRRPSLVHGY
In the case of B15, the normalised SPOT signal, Boehringer light units (BLU); mean over the file's lines of this peptide is 879 in test [1] and 2680 in test [2].

B16: P11229 442-455 (peptide)
chain: WRKIPKRPGSVHRT
Take B16: the results for the normalised SPOT signal, Boehringer light units (BLU); mean over the file's lines of this peptide in test [1] and in test [2] were 48.9 and 573, respectively.

B17: O95428 295-308 (peptide)
chain: YHLPLRRPSPGFSW
Consider B17, for which the normalised SPOT signal, Boehringer light units (BLU); mean over the file's lines of this peptide in test [1] was determined as 135; in test [2] it was 1270.

B18: Q9Y4J6 675-688 (peptide)
chain: SNKGFRRPSEKNQH
Turning to B18, the values for the normalised SPOT signal, Boehringer light units (BLU); mean over the file's lines of this peptide in test [1] and in test [2] were 43.2 and 55.9, respectively.

B19: Q9HB39 190-203 (peptide)
chain: YGPNIGRPRKNVIA
As for B19, the values for the normalised SPOT signal, Boehringer light units (BLU); mean over the file's lines of this peptide in test [1] and in test [2] were 134 and 166, respectively.

B20: Q9UMR2 108-121 (peptide)
chain: YAMGFNRPSKIQEN
For B20, the normalised SPOT signal, Boehringer light units (BLU); mean over the file's lines of this peptide in test [1] was determined as 237; in test [2], 244.

B21: O14686 2329-2343 (peptide)
chain: YGLSPLRPPSVLPP
Turning to B21, the normalised SPOT signal, Boehringer light units (BLU); mean over the file's lines of this peptide in test [1] is 40; in test [2] it was 118.

B22: Q9HC18 65-78 (peptide)
chain: YHPPIFRPMKRINL
As to B22, the normalised SPOT signal, Boehringer light units (BLU); mean over the file's lines of this peptide in test [1] amounted to 164; in test [2], 250.

B23: Q96HE7 77-90 (peptide)
chain: YKVNLKRPSPFWND
Turning to B23, the normalised SPOT signal, Boehringer light units (BLU); mean over the file's lines of this peptide in test [1] is 47.4; in test [2], 28.6.

B24: O43397 6-19 (peptide)
chain: WSEVLHRPWRNHPI
Turning to B24, the normalised SPOT signal, Boehringer light units (BLU); mean over the file's lines of this peptide in test [1] was found to be 272; in test [2] it was 366.

B25: P42898 339-352 (peptide)
chain: WTEDPRRPLPWALS
With B25, the normalised SPOT signal, Boehringer light units (BLU); mean over the file's lines of this peptide was found to be 38.4 in test [1] and 110 in test [2].

B26: Q9UP58 185-199 (peptide)
chain: WSRSPPRPPRERFE
For B26, the normalised SPOT signal, Boehringer light units (BLU); mean over the file's lines of this peptide in test [1] amounted to 7550; in test [2] it was 18400.

B27: O15250 155-168 (peptide)
chain: WTDRPERPSKPLLT
Consider B27, for which the normalised SPOT signal, Boehringer light units (BLU); mean over the file's lines of this peptide in test [1] came out at 3180; in test [2] it was 508.

B28: Q9UGQ3 12-26 (peptide)
chain: YDTFPEKPPPSPGD
Take B28: the normalised SPOT signal, Boehringer light units (BLU); mean over the file's lines of this peptide in test [1] is 33; in test [2], 97.2.

B29: P30990 153-166 (peptide)
chain: YENKPRRPYILKRD
In the case of B29, the normalised SPOT signal, Boehringer light units (BLU); mean over the file's lines of this peptide was determined as 51.5 in test [1] and 208 in test [2].

B30: Q96N50 15-28 (peptide)
chain: WRYDLRRPSFTRTW
Consider B30, for which the normalised SPOT signal, Boehringer light units (BLU); mean over the file's lines of this peptide was found to be 140 in test [1] and 628 in test [2].

B31: Q9H5Q4 87-101 (peptide)
chain: YLGKPSRPPHLLLE
Consider B31, for which the results for the normalised SPOT signal, Boehringer light units (BLU); mean over the file's lines of this peptide in test [1] and in test [2] were 44.1 and 1770, respectively.

B32: P41440 139-152 (peptide)
chain: YIFSLVRPARYQRV
With B32, the normalised SPOT signal, Boehringer light units (BLU); mean over the file's lines of this peptide turned out to be 2220 in test [1] and 1780 in test [2].

B33: Q9H1V5 704-717 (peptide)
chain: WRRSLRRPDSRGRF
As for B33, the normalised SPOT signal, Boehringer light units (BLU); mean over the file's lines of this peptide in test [1] was determined as 95.6; in test [2], 217.

B34: Q9H1B5 714-727 (peptide)
chain: YKPPLSRPLRPGPW
With B34, the normalised SPOT signal, Boehringer light units (BLU); mean over the file's lines of this peptide in test [1] stood at 1210; in test [2] it was 263.

B35: Q9P2P9 924-937 (peptide)
chain: WVTMPRRPPPSGGL
As for B35, the normalised SPOT signal, Boehringer light units (BLU); mean over the file's lines of this peptide in test [1] was 31; in test [2] it was 2400.

B36: Q13006 89-102 (peptide)
chain: YSTGPPRPGRLFGS
With B36, the results for the normalised SPOT signal, Boehringer light units (BLU); mean over the file's lines of this peptide in test [1] and in test [2] were 317 and 364, respectively.

B37: BAC04448 133-147 (peptide)
chain: YKVSPGRPPGSIKA
In the case of B37, the results for the normalised SPOT signal, Boehringer light units (BLU); mean over the file's lines of this peptide in test [1] and in test [2] were 48.6 and 553, respectively.

B38: P54198 312-325 (peptide)
chain: WLTSLKRPLVVIHE
As for B38, the normalised SPOT signal, Boehringer light units (BLU); mean over the file's lines of this peptide in test [1] stood at 26.3; in test [2], 326.

Values taken from publication PMC314469, “Protein Interaction Networks by Proteome Peptide Scanning” (PLoS Biology, 2004).
